# Experimental data as given in paper PMC11952830.
# Biological target: actin (rabbit muscle), P68135
# Test: fluorescence anisotropy
# Conditions: chain shown with the change, actin filaments titrated 0-12 µM
Kd (20 nM TMR-labeled KLP-AAA Cdc42EP3 (TMR at C211) held fixed) [µM],Kd (20 nM TMR-labeled IS-AA Cdc42EP3 (TMR at C211) held fixed) [µM],Binder
3.4,–,"Cdc42EP3 labeled with tetramethylrhodamine (TMR) at C211, Q9UKI2 KLP->AAA (protein) MPAKTPIYLKAANNKKGKKFKLRDILSPDMISPPLGDFRHTIHIGKEGQHDVFGDISFLQGNYELLPGNQEKAHLGQFPGHNEFFRANSTSDSVFTETPSPVLKNAISLPTIGGSQALMLPLLSPVTFNSKQESFGPAAAARLSAEPVMEEKAQEKSSLLENGTVHQGDTSWGSSGSASQSSQGRDSHSSSLSEQYPDWPAEDMFDHPTPCELIKGKTKSEESLSDLTGSLLSLQLDLGPSLLDEVLNVMDKNK"
–,2.8,"Cdc42EP3 labeled with tetramethylrhodamine (TMR) at C211, Q9UKI2 IS->AA (protein) MPAKTPIYLKAANNKKGKKFKLRDILSPDMAAPPLGDFRHTIHIGKEGQHDVFGDISFLQGNYELLPGNQEKAHLGQFPGHNEFFRANSTSDSVFTETPSPVLKNAISLPTIGGSQALMLPLLSPVTFNSKQESFGPAKLPRLSAEPVMEEKAQEKSSLLENGTVHQGDTSWGSSGSASQSSQGRDSHSSSLSEQYPDWPAEDMFDHPTPCELIKGKTKSEESLSDLTGSLLSLQLDLGPSLLDEVLNVMDKNK"
